In publication PMC9482650, “Quantitative fragmentomics allow affinity mapping of interactomes” (Nature Communications, 2022):

How the values were obtained:
[1] = test system: HaCat cell extract preys; assay: PDZ-AP-MS, biotinylated MBP-PDZ baits; format: binding, human; conditions: for Difference log2: enrichment of prey; for Ratio SNX27/MBP: bait SNX27 PDZ
Protocol: (§1) For PDZ-AP-MS experiments, PDZ domains were cloned as His6-AviTag-MBP-PDZ constructs. For co-expression with BirA, E. coli BL21(DE3) cells were co-transformed with His6-AviTag-MBP, or His6-AviTag-MBP-PDZ-coding and PET21a-BirA (Addgene #20857) plasmids. Simultaneously to IPTG induction, 50 µM biotin was added to the media. After cell harvesting, the lysis buffer was also supplemented with 50 µM biotin. Otherwise, expression and double affinity purification was identical as previously described in details.
(§2) For PBM-AP-MS experiments, 30 μl streptavidin resin was mixed with biotin or peptide at 50–60 μM concentration in 6–6.5 resin volume for 60 min to achieve resin saturation. For PDZ-AP-MS experiments, 30 μl streptavidin resin was mixed with biotinylated MBP or MBP-PDZ at 40-50 μM concentration in >1000× resin volume for 60 min to achieve resin saturation. After saturation, resins were washed a single time (ten resin volume, holdup buffer), and were depleted with biotin (1 mM biotin, 5–10 resin volume, 10 min). Finally, resins were washed two times. 0.5 ml 2 mg/ml cell lysate was added to the dry resin (1 mg total input) and were incubated at 4 °C for 2 h. Then, the beads were washed three times with 10 resin volume buffer containing: 50 mM TRIS pH 8.5, 150 mM NaCl, 1% TritonX-100, 10× complete EDTA-free protease inhibitor cocktail, 2 mM EDTA, 1 mM TCEP. Then, the beads were washed two times with ten resin volume buffer containing: 50 mM TRIS pH 8.5, 150 mM NaCl, 1 mM TCEP. Finally, captured protein was eluted from the resin in two steps and the eluted fractions were pooled. For each elution the beads were incubated for 30 min with three resin volume buffer containing: 20 mM TRIS pH8.5, 100 mM NaCl, 500 μM TCEP, 8 M Urea. Between each step, the beads were separated by mild centrifugation and the supernatant was removed by gentle pipetting.
(§3) The samples were precipitated with TCA 20% overnight at 4 °C and centrifuged at 14,000 rpm for 10 min at 4 °C. The protein pellets were washed twice with 1 mL cold acetone and air dried. The protein extracts were solubilized in urea 8 M, reduced with 5 mM TCEP for 30 min, and alkylated with 10 mM iodoacetamide for 30 min in the dark. Double digestion was performed at 37 °C with 500 ng endoproteinase Lys-C for 4 h, followed by fourfold dilution and an overnight digestion with 500 ng trypsin. Peptide mixtures were then desalted on C18 spin-column and dried on Speed-Vacuum.
(§4) Samples were analyzed using an Ultimate 3000 nano-RSLC (Thermo Scientific, San Jose California) coupled in line with a LTQ-Orbitrap ELITE mass spectrometer via a nano-electrospray ionization source (Thermo Scientific, San Jose California). Peptide mixtures were injected in 0.1% TFA on a C18 Acclaim PepMap100 trap-column (75 µm ID × 2 cm, 3 µm, 100 Å, Thermo Fisher Scientific) for 3 min at 5 µL/min with 2% ACN, 0.1% FA in H2O and then separated on a C18 Accucore nano-column (75 µm ID × 50 cm, 2.6 µm, 150 Å, Thermo Fisher Scientific) at 220 nl/min and 38 °C with a 90 min linear gradient from 5% to 30% buffer B (A: 0.1% FA in H2O/B: 99% ACN, 0.1% FA in H2O), regeneration at 5% B. The mass spectrometer was operated in positive ionization mode, in data-dependent mode with survey scans from m/z 350–1500 acquired in the Orbitrap at a resolution of 120,000 at m/z 400. The 20 most intense peaks from survey scans were selected for further fragmentation in the Linear Ion Trap with an isolation window of 2.0 Da and were fragmented by CID with normalized collision energy of 35%. (TOP20CID method) Unassigned and single charged states were excluded from fragmentation. The Ion Target Value for the survey scans (in the Orbitrap) and the MS2 mode (in the Linear Ion Trap) were set to 1E6 and 5E3 respectively and the maximum injection time was set to 100 ms for both scan modes. Dynamic exclusion was set to 20 s after one repeat count with mass width at ±10 ppm. […]

[2] = test system: HeLa cell extract preys; assay: PDZ-AP-MS, biotinylated MBP-PDZ baits; format: binding, human; conditions: for Ratio: fold enrichment of prey; for Difference: log2 enrichment of prey
Protocol: as §1, §2, §3, §4

[3] = bait SCRIB_2 PDZ (biotinylated MBP-PDZ) vs MBP control
[4] = bait SCRIB_2 PDZ vs MBP control

B1: HSPD1 (protein, UniProt P10809 27-573, looked up)
60 kDa heat shock protein, …: AKDVKFGADARALMLQGVDLLADAVAVTMGPKGRTVIIEQSWGSPKVTKDGVTVAKSIDLKDKYKNIGAKLVQDVANNTNEEAGDGTTTATVLARSIAKEGFEKISKGANPVEIRRGVMLAVDAVIAELKKQSKPVTTPEEIAQVATISANGDKEIGNIISDAMKKVGRKGVITVKDGKTLNDELEIIEGMKFDRGYISPYFINTSKGQKCEFQDAYVLLSEKKISSIQSIVPALEIANAHRKPLVIIAEDVDGEALSTLVLNRLKVGLQVVAVKAPGFGDNRKNQLKDMAIATGGAVFGEEGLTLNLEDVQPHDLGKVGEVIVTKDDAMLLKGKGDKAQIEKRIQEIIEQLDVTTSEYEKEKLNERLAKLSDGVAVLKVGGTSDVEVNEKKDRVTDALNATRAAVEEGIVLGGGCALLRCIPALDSLTPANEDQKIGIEIIKRTLKIPAMTIAKNAGVEGSLIVEKIMQSSSEVGYDAMAGDFVNMVEKGIIDPTKVVRTALLDAAGVASLLTTAEVVVTEIPKEEKDPGMGAMGGMGGGMGGGMF
[1]; bait DLG1_1 PDZ vs MBP
  Difference log2: 6.29
[1]; bait DLG1_1 PDZ, fold change of prey
  Ratio DLG1_1/MBP: 78.233
[2]; bait TX1BP3 PDZ vs MBP control
  Ratio: 104.688
  Difference: 6.71

B2: FUS (protein, UniProt P35637 1-526, looked up)
RNA-binding protein FUS: MASNDYTQQATQSYGAYPTQPGQGYSQQSSQPYGQQSYSGYSQSTDTSGYGQSSYSSYGQSQNTGYGTQSTPQGYGSTGGYGSSQSSQSSYGQQSSYPGYGQQPAPSSTSGSYGSSSQSSSYGQPQSGSYSQQPSYGGQQQSYGQQQSYNPPQGYGQQNQYNSSSGGGGGGGGGGNYGQDQSSMSSGGGSGGGYGNQDQSGGGGSGGYGQQDRGGRGRGGSGGGGGGGGGGYNRSSGGYEPRGRGGGRGGRGGMGGSDRGGFNKFGGPRDQGSRHDSEQDNSDNNTIFVQGLGENVTIESVADYFKQIGIIKTNKKTGQPMINLYTDRETGKLKGEATVSFDDPPSAKAAIDWFDGKEFSGNPIKVSFATRRADFNRGGGNGRGGRGRGGPMGRGGYGGGGSGGGGRGGFPSGGGGGGGQQRAGDWKCPNPTCENMNFSWRNECNQCKAPKPDGPGGGPGGSHMGGNYGDDRRGGRGGYDRGGYRGRGGDRGGFRGGRGGGDRGGFGPGKMDSRGEHRQDRRERPY
[2]; [3]
  Difference: 4.68
[2]; [4]
  Ratio: 25.6321

B3: CAV1 (protein, UniProt Q03135 2-178, looked up)
Caveolin-1: SGGKYVDSEGHLYTVPIREQGNIYKPNNKAMADELSEKQVYDAHTKEIDLVNRDPKHLNDDVVKIDFEDVIAEPEGTHSFDGIWKASFTTFTVTKYWFYRLLSALFGIPMALIWGIYFAILSFLHIWAVVPCIKSFLIEIQCISRVYSIYVHTVCDPLFEAVGKIFSNVRINLQKEI
[1]; bait SNX27 PDZ vs MBP
  Difference log2: 8.5897
[1]; fold change of prey
  Ratio SNX27/MBP: 385.263

B4: DARS1 (protein, UniProt P14868 1-501, looked up)
Aspartate--tRNA ligase, …: MPSASASRKSQEKPREIMDAAEDYAKERYGISSMIQSQEKPDRVLVRVRDLTIQKADEVVWVRARVHTSRAKGKQCFLVLRQQQFNVQALVAVGDHASKQMVKFAANINKESIVDVEGVVRKVNQKIGSCTQQDVELHVQKIYVISLAEPRLPLQLDDAVRPEAEGEEEGRATVNQDTRLDNRVIDLRTSTSQAVFRLQSGICHLFRETLINKGFVEIQTPKIISAASEGGANVFTVSYFKNNAYLAQSPQLYKQMCICADFEKVFSIGPVFRAEDSNTHRHLTEFVGLDIEMAFNYHYHEVMEEIADTMVQIFKGLQERFQTEIQTVNKQFPCEPFKFLEPTLRLEYCEALAMLREAGVEMGDEDDLSTPNEKLLGHLVKEKYDTDFYILDKYPLAVRPFYTMPDPRNPKQSNSYDMFMRGEEILSGAQRIHDPQLLTERALHHGIDLEKIKAYIDSFRFGAPPHAGGGIGLERVTMLFLGLHNVRQTSMFPRDPKRLTP
[1]; bait SCRIB_2 PDZ vs MBP
  Difference log2: 3.605
[1]; bait SCRIB_2 PDZ, fold change of prey
  Ratio SCRIB_2/MBP: 12.1719

B5: CAVIN1 (protein, UniProt Q6NZI2 1-390, looked up)
Caveolae-associated protein 1: MEDPTLYIVERPLPGYPDAEAPEPSSAGAQAAEEPSGAGSEELIKSDQVNGVLVLSLLDKIIGAVDQIQLTQAQLEERQAEMEGAVQSIQGELSKLGKAHATTSNTVSKLLEKVRKVSVNVKTVRGSLERQAGQIKKLEVNEAELLRRRNFKVMIYQDEVKLPAKLSISKSLKESEALPEKEGEELGEGERPEEDAAALELSSDEAVEVEEVIEESRAERIKRSGLRRVDDFKKAFSKEKMEKTKVRTRENLEKTRLKTKENLEKTRHTLEKRMNKLGTRLVPAERREKLKTSRDKLRKSFTPDHVVYARSKTAVYKVPPFTFHVKKIREGQVEVLKATEMVEVGADDDEGGAERGEAGDLRRGSSPDVHALLEITEESDAVLVDKSDSD
[1]; bait SNX27 PDZ vs MBP
  Difference log2: 7.364
[1]; fold change of prey
  Ratio SNX27/MBP: 164.68

B6: SFPQ (protein, UniProt P23246 1-707, looked up)
Splicing factor, proline- and …: MSRDRFRSRGGGGGGFHRRGGGGGRGGLHDFRSPPPGMGLNQNRGPMGPGPGQSGPKPPIPPPPPHQQQQQPPPQQPPPQQPPPHQPPPHPQPHQQQQPPPPPQDSSKPVVAQGPGPAPGVGSAPPASSSAPPATPPTSGAPPGSGPGPTPTPPPAVTSAPPGAPPPTPPSSGVPTTPPQAGGPPPPPAAVPGPGPGPKQGPGPGGPKGGKMPGGPKPGGGPGLSTPGGHPKPPHRGGGEPRGGRQHHPPYHQQHHQGPPPGGPGGRSEEKISDSEGFKANLSLLRRPGEKTYTQRCRLFVGNLPADITEDEFKRLFAKYGEPGEVFINKGKGFGFIKLESRALAEIAKAELDDTPMRGRQLRVRFATHAAALSVRNLSPYVSNELLEEAFSQFGPIERAVVIVDDRGRSTGKGIVEFASKPAARKAFERCSEGVFLLTTTPRPVIVEPLEQLDDEDGLPEKLAQKNPMYQKERETPPRFAQHGTFEYEYSQRWKSLDEMEKQQREQVEKNMKDAKDKLESEMEDAYHEHQANLLRQDLMRRQEELRRMEELHNQEMQKRKEMQLRQEEERRRREEEMMIRQREMEEQMRRQREESYSRMGYMDPRERDMRMGGGGAMNMGDPYGSGGQKFPPLGGGGGIGYEANPGVPPATMSGSMMGSDMRTERFGQGGAGPVGGQGPRGMGPGTPAGYGRGREEYEGPNKKPRF
[2]; bait DLG1_1 PDZ vs MBP control
  Ratio: 33.0339
  Difference: 5.046
[2]; [3]
  Difference: 5.287
[2]; [4]
  Ratio: 39.0318
